This is an account of results in the RNAGym collection of RNA variant scans (doi:10.1021/acssynbio.7b00057).

B1: Pistol ribozyme (parent)
chain: GGGUCGUUGUUCCAUAAUCGCGUGGAUAUGGCACGCAAGUUUCUACCGGGCACCGUAAAUGUCCGACUGGAGCCGUUCGGGCGGCUAUAAACAGACCUCAGGCCCGAAGCGUGGCGGCACCUGCCGCCGGUGGUAAAAAAGAUCGGAAGAGCACACGUCU

The variants in this data set derive from B1. The data set is described as follows: aptazyme ON/OFF ratio, guanine; higher = stronger switching; co-transcriptional cleavage with and without guanine.
As for U7G U8C G9C U11G C12G C13U, the “aptazyme ON/OFF ratio” value is 1.1.
On to U8C U10G C12U C13U, for which the “aptazyme ON/OFF ratio” value was 1.2.
For U8A G9C U10A C12A C13A the value was 1.22; for U8G G9U U11C C12G C13G, 1.06.
Turning to U7A G9A U10A U11G, the “aptazyme ON/OFF ratio” value turned out to be 1.3.
Consider U7C U8G G9U C12A C13G, for which the “aptazyme ON/OFF ratio” value worked out at 1.27.
On to U7A U8C G9U U10A U11G C12A C13U, for which the “aptazyme ON/OFF ratio” value was 1.1.
Then U7A U8C G9A U10A C13A, with 1.22.
For U7A U8C G9U U10C U11G C12A C13G, the “aptazyme ON/OFF ratio” value was determined as 1.11.
With U7A U8G G9C U10G U11C C12U C13A, the “aptazyme ON/OFF ratio” value came out at 1.31.
Then U8A G9A U10C U11C C12A C13U, with 1.02; and U8G G9A U10C C13A, with 1.04.
In the case of U7G U8C G9A U11C, the “aptazyme ON/OFF ratio” value was 1.4.
Then U7C U8C G9U U10A U11A C13A, with 1.13.
Turning to U8G U11A C12U C13U, the “aptazyme ON/OFF ratio” value was 1.33.
Then U7G U8C G9A U10G U11G C12G C13G, with 1.2; and U7G U8G G9C U10G U11G C12G C13G, with 1.17.
For U7G U8G G9U U10G U11G C12U the value was 1.18; for U7C G9A U11G C12A C13A, 1.22; for U7A G9A U10C U11C C12U C13G, 1.04.
As for U8G U10G U11G C12U C13G, the “aptazyme ON/OFF ratio” value is 1.31.
For the variant U8A G9A U10C U11C C13G, the “aptazyme ON/OFF ratio” value was determined as 1.03.
Regarding U7C U8G G9U U11C C13G, the “aptazyme ON/OFF ratio” value worked out at 1.02.
For the variant U7G U8A G9U U10C C12U C13A, the “aptazyme ON/OFF ratio” value came to 1.12.
For U7G U8A G9A U11G C13G the value was 1.03.
Then U8A G9U U10C U11G C12A, with 1.05; and U8A U11G C12U C13G, with 1.1; and U7C U10C C12U C13G, with 1.28.
For U7C G9C U10G U11C C13G the value was 1.04; for U7G U8C U10C U11G C12A, 1.24.
With U7A U8G U10A U11C C12G C13G, the “aptazyme ON/OFF ratio” value came to 1.26.
On to U7G G9C U10A U11A C12A C13U, for which the “aptazyme ON/OFF ratio” value was 1.29.
Then U7C U8A U10A C13U, with 1.06.
On to U7A U8C G9C U10C U11G C12U C13A, for which the “aptazyme ON/OFF ratio” value stood at 1.09.
As for U7G U8A G9C U10C U11G C12G C13G, the “aptazyme ON/OFF ratio” value stood at 1.02.
For U7A U8A G9U U10A C12A C13U the value was 1.15.
As for U7G G9C C12A, the “aptazyme ON/OFF ratio” value stood at 1.99.
For U7A U8A G9C U10G C13U the value was 1.56.
In the case of U7A U8A G9C U10G C13G, the “aptazyme ON/OFF ratio” value worked out at 1.29.
Then U7C U8G G9C U11G C13G, with 1.03; and U7G G9A U11A C13U, with 1.2; and U7C U8C G9U U10A U11A C12G C13G, with 1.19.
For U7C U8A G9C U10C C12U C13U the value was 1.05; for U7G U8G G9U U11C C12G C13G, 1.17; for U8C G9U U10G U11G C12A, 1.22.
As to U7C U8A U10C U11G, the “aptazyme ON/OFF ratio” value was 1.34.
For U7A U8G G9U U10G U11C C12U C13U the value was 1.05; for U11C, 1.53.
For U7G U8A G9U U10G U11A C12A the value was 1.09.
Then U8G C12G, with 1.52; and U7C U8G G9A U10A U11G C12A C13G, with 1.19.
Take U7C U8C G9A U10A U11C C12A C13G: the “aptazyme ON/OFF ratio” value stood at 1.18.
For U7A U8C G9A U10C U11C C12G C13G the value was 1.07; for U7C U8G G9A U11A C12U, 1.26.
Then U7G U8A U10A U11C C12A, with 1.31.
Regarding U7C U8A G9C C12A, the “aptazyme ON/OFF ratio” value is 1.17.
Take U8A G9U U10G U11A C12A C13A: the “aptazyme ON/OFF ratio” value was 1.22.
As for U7G U8G U10G C12G C13G, the “aptazyme ON/OFF ratio” value amounted to 1.32.
Consider U8C G9C U10C U11A C13A, for which the “aptazyme ON/OFF ratio” value was 1.01.
Then U8G G9U U10A U11C C12A, with 1.12; and U7G G9U U11G C12A C13A, with 1.11; and U7G U8G G9C U10C U11C C13A, with 1.09.
Then U7C U8G G9C U11A C12G C13G, with 1.13; and G9C U11G C12U C13A, with 1.3; and U7A U8A G9A U10A C13U, with 1.17.
For U7A U8G G9A U10G U11C C12G C13U the value was 1.22; for U7G G9C U10G U11G, 2.48.
As for U8A U11G C13G, the “aptazyme ON/OFF ratio” value was 1.04.
U8G G9C U10G U11G C12G: the “aptazyme ON/OFF ratio” value is 1.31.
Then U7C U8G G9C C12U C13G, with 1.07; and U8G G9C U11G C12G C13A, with 1.09; and U7C G9A U10G U11G C12A C13U, with 1.13.
Then U7A U8A G9C U10G U11C C13G, with 1.04; and U8G U10A U11G C12G C13U, with 1.5; and U8A U10C U11A C12U C13A, with 1.16.
U7A U8G G9U U10G C13U: the “aptazyme ON/OFF ratio” value turned out to be 1.23.
Consider U7G U8A G9A U10C U11A, for which the “aptazyme ON/OFF ratio” value was 1.4.
Consider U7G U8C G9C U10A U11A C12A C13G, for which the “aptazyme ON/OFF ratio” value was determined as 1.09.
For U7G G9A U10G U11A C12U C13G the value was 1.05.
Then U7A U8G G9A U10C U11G C13A, with 1.19.
As to U8C G9A U10G U11A C12U, the “aptazyme ON/OFF ratio” value came out at 1.04.
Take U7A U8A G9C U11A C12A C13U: the “aptazyme ON/OFF ratio” value came to 1.15.
U7A U8C G9C U10C U11A C12G C13A: the “aptazyme ON/OFF ratio” value came to 1.03.
For U7G U8A G9C U10A U11C C12A C13A the value was 1.04.
